The text below walks through data of PMC2175198.

The assay has as its target ribosomes (membrane-bound, carrying nascent chains) (S. cerevisiae (endogenous in yeast microsomes)). Put plainly: co-sedimentation.

As to “Sec61p of the sec61-3 mutant (from UniProt P32915 1-480) (natural protein)”, the percent of Sec61p bound to ribosomes (25°C; sec61-3 strain) came out at 30%.

B1: Sec61p (natural protein)
chain: MSSNRVLDLFKPFESFLPEVIAPERKVPYNQKLIWTGVSLLIFLILGQIPLYGIVSSETSDPLYWLRAMLASNRGTLLELGVSPIITSSMIFQFLQGTQLLQIRPESKQDRELFQIAQKVCAIILILGQALVVVMTGNYGAPSDLGLPICLLLIFQLMFASLIVMLLDELLSKGYGLGSGISLFTATNIAEQIFWRAFAPTTVNSGRGKEFEGAVIAFFHLLAVRKDKKRALVEAFYRTNLPNMFQVLMTVAIFLFVLYLQGFRYELPIRSTKVRGQIGIYPIKLFYTSNTPIMLQSALTSNIFLISQILFQKYPTNPLIRLIGVWGIRPGTQGPQMALSGLAYYIQPLMSLSEALLDPIKTIVYITFVLGSCAVFSKTWIEISGTSPRDIAKQFKDQGMVINGKRETSIYRELKKIIPTAAAFGGATIGALSVGSDLLGTLGSGASILMATTTIYGYYEAAAKEGGFTKNLVPGFSDLM
Turning to B1, the percent of Sec61p bound to ribosomes (25°C; wild-type and srp101-47 strains) amounted to 30%; the percent of Sec61p bound to ribosomes (srp101-47 strain, 3 h at 37°C) was determined as 20%.
